Experimental findings from PMC2217618 are described below.

This assay addresses RGDPEG-avidin (UniProt P02701). Description: ELISA.

Chain of RGDPEG-avidin (P02701 25-152): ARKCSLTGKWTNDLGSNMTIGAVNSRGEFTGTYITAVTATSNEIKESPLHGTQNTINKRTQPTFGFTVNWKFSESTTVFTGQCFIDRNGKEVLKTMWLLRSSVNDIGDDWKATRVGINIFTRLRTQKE
Chain of Bio-ULS-TRAIL (P50591 114-281): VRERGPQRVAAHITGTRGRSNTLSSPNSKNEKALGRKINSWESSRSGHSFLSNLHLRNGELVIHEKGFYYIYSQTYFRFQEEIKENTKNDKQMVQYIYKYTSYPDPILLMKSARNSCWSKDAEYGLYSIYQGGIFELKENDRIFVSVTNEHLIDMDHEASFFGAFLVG

With “Bio-ULS-TRAIL (from UniProt P50591 114-281) (ligand)”, the binding less than Bio-NHS-TRAIL turned out to be 40 % less.
